Test results from publication PMC9080259, “Dual-cycle immobilization to reuse both enzyme and support by reblossoming enzyme–inorganic hybrid nanoflowers” (RSC Advances, 2018).

What was measured:
Test in all cases: purified protein
[1] = substrate: CCOC(=O)[C@H](CCCNC(=N)N)NC(=O)c1ccccc1; conditions: free enzyme, 37 °C, pH not told, substrate of the kinetics taken from the activity assay
[2] = substrate: CC(=O)Oc1ccc([N+](=O)[O-])cc1; format: biochemical, Moesziomyces antarcticus; conditions: free enzyme, PBS 100 mM pH 6.5, 37 °C, substrate of the kinetics taken from the activity assay
[3] = substrate: CC(=O)Oc1ccc([N+](=O)[O-])cc1; format: biochemical, Thermomyces lanuginosus; conditions: free enzyme, PBS 100 mM pH 6.5, 37 °C, substrate of the kinetics taken from the activity assay

B1: Papain (Carica papaya) (protein)
chain: IPEYVDWRQKGAVTPVKNQGSCGSCWAFSAVVTIEGIIKIRTGNLNEYSEQELLDCDRRSYGCNGGYPWSALQLVAQYGIHYRNTYPYEGVQRYCRSREKGPYAAKTDGVRQVQPYNEGALLYSIANQPVSVVLEAAGKDFQLYRGGIFVGPCGNKVDHAVAAVGYGPNYILIKNSWGTGWGENGYIRIKRGTGNSYGVCGLYTSSFYPVKN
[1]
  Km: 1.01 ± 0.05 mM
  kcat: 2.67 s⁻¹
  kcat/Km: 2670 M⁻¹ s⁻¹

B2: Lipase B from Candida antarctica (CALB) (Moesziomyces antarcticus) (protein)
chain: LPSGSDPAFSQPKSVLDAGLTCQGASPSSVSKPILLVPGTGTTGPQSFDSNWIPLSTQLGYTPCWISPPPFMLNDTQVNTEYMVNAITALYAGSGNNKLPVLTWSQGGLVAQWGLTFFPSIRSKVDRLMAFAPDYKGTVLAGPLDALAVSAPSVWQQTTGSALTTALRNAGGLTQIVPTTNLYSATDEIVQPQVSNSPLDSSYLFNGKNVQAQAVCGPLFVIDHAGSLTSQFSYVVGRSALRSTTGQARSADYGITDCNPLPANDLTPEQKVAAAALLAPAAAAIVAGPKQNCEPDLMPYARPFAVGKRTCSGIVTP
[2]
  Km: 6.36 ± 0.321 mM
  kcat: 56.8 ± 2.73 s⁻¹
  kcat/Km: 8920 ± 23 M⁻¹ s⁻¹

B3: Lipase from Thermomyces lanuginosus (TLL) (Thermomyces lanuginosus) (protein)
chain: EVSQDLFNQFNLFAQYSAAAYCGKNNDAPAGTNITCTGNACPEVEKADATFLYSFEDSGVGDVTGFLALDNTNKLIVLSFRGSRSIENWIGNLNFDLKEINDICSGCRGHDGFTSSWRSVADTLRQKVEDAVREHPDYRVVFTGHSLGGALATVAGADLRGNGYDIDVFSYGAPRVGNRAFAEFLTVQTGGTLYRITHTNDIVPRLPPREFGYSHSSPEYWIKSGTLVPVTRNDIVKIEGIDATGGNNQPNIPDIPAHLWYFGLIGTCL
[3]
  Km: 16.58 ± 0.793 mM
  kcat: 29.3 ± 1.26 s⁻¹
  kcat/Km: 1770 ± 8 M⁻¹ s⁻¹
